Measured values from publication PMC4020579 (Biochemistry, 2014).

Legend:
[1] = Solubility of RPA32C in crystallization screening; assay type: physicochemical; conditions: all sparse matrix conditions examined, standard buffer conditions
[2] = biological target: RPA32C, the optimized RPA32_(202–270) construct (C-terminal winged-helix domain of the RPA 32 kDa subunit) (UniProt P15927 202-270); assay: NMR titration
[3] = biological target: RPA32_(172–270), the previously reported RPA32C construct of the replication protein A 32 kDa subunit (UniProt P15927 172-270); assay: ITC
Sequence of RPA32_(172–270), the previously reported RPA32C construct of the replication protein A 32 kDa subunit (P15927 172-270): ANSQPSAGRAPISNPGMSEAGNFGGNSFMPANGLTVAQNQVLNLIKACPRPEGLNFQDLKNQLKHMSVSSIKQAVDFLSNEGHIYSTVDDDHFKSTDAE

Sequence of RPA32C, the optimized RPA32_(202–270) construct (C-terminal winged-helix domain of the RPA 32 kDa subunit) (P15927 202-270): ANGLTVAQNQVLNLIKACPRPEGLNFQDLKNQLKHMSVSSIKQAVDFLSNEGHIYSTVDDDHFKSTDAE

For “RPA32C: optimized C-terminal winged-helix domain construct of the RPA 32 kDa subunit, residues 202–270”, the “concentration at which soluble” value [1] was ≥ 40000 µg/mL.

EEQRKKIEENRQKALARRAEKLLAEQ (peptide, UniProt Q9NZC9 7-32, looked up) [SMARCAL1_(7–32) peptide]: binds [2].

In the case of MSLPLTEEQRKKIEENRQKALARRAEKLLAEQ (peptide, UniProt Q9NZC9 1-32, looked up) [SMARCAL1_(1–32), SMARCAL1 residues 1–32 containing the RPA binding motif (RBM)], the Kd [3] is reported as 2500 ± 100 nM.
